Data set [1] has as its system NC(=O)c1ccc[n+]([C@@H]2O[C@H](COP(=O)(O)OP(=O)(O)OC[C@H]3O[C@@H](n4cnc5c(N)ncnc54)[C@H](O)[C@@H]3O)[C@@H](O)[C@H]2O)c1. In words: purified protein. The note with it: room temperature, 60 min, 1–600 μM NAD+.
Another data set deals with T1, AbTIR (Acinetobacter baumannii, UniProt A0A009IHW8).
T1 construct: gene J512_3302; His-tagged recombinant AbTIR-His
In words: HPLC of reaction products. Format: biochemical. The note with it: product v-cADPR.

The text below walks through data of article PMC9298051, “A phytobacterial TIR domain effector manipulates NAD^+ to promote virulence” (The New Phytologist, 2021).

For orientation: Km means the substrate concentration at which the rate is half of its maximum. One may read the kcat as the maximal rate divided by the concentration of active sites.

T1 sequence (A0A009IHW8 whole entry): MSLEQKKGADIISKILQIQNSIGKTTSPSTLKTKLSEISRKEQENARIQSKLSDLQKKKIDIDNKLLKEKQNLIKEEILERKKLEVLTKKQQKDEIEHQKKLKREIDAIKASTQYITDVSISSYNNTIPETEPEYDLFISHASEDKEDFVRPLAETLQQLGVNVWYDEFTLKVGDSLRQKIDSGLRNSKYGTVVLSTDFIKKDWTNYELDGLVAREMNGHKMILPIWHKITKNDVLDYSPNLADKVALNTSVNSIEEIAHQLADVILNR

Turning to “HopAM1 (Pseudomonas syringae pv. tomato str. DC3000)”, in data set [1], the Michaelis-Menten constant (Km) is 174.8 µM and the kcat stood at 0.00933 s⁻¹.

For the compound `NC(=O)c1ccc[n+]([C@@H]2O[C@H](COP(=O)(O)OP(=O)(O)OC[C@H]3O[C@@H](n4cnc5c(N)ncnc54)[C@H](O)[C@@H]3O)[C@@H](O)[C@H]2O)c1` [NAD^+], the “HPLC of reaction products” value on AbTIR was “NAD^+ hydrolase reactions were conducted with purified HopAM1 and AbTIR”.
